Target: the molecule itself
Experiment: SEC

B1: full-length WT HIV-1 integrase (IN) (enzyme)
chain: FLDGIDKAQEEHEKYHSNWRAMASDFNLPPVVAKEIVASCDKCQLKGEAMHGQVDCSPGIWQLDCTHLEGKVILVAVHVASGYIEAEVIPAETGQETAYFLLKLAGRWPVKTVHTDNGSNFTSTTVKAACWWAGIKQEFGIPYNPQSQGVIESMNKELKKIIGQVRDQAEHLKTAVQMAVFIHNFKRKGGIGGYSAGERIVDIIATDIQTKELQKQITKIQNFRVYYRDSRDPVWKGPAKLLWKGEGAVVIQDNSDIKVVPRRKAKIIRDYGKQMAGDDCVASRQDED
binding result: binds

Reference: PMC10849636 (bioRxiv, 2024)
